Measurements taken from the supplement of paper PMC7877785.
± gives the uncertainty stated by the source.

Experiment: self-splicing fitness, log relative to wild type (ln ratio); higher = more splicing; Tetrahymena group I intron in knt gene, E. coli kanamycin selection, DiMSum; sequences stand for … in CUCUCU…GGAGGGAAAAGUUAUCAGGCAUGCACCUGGUAGCUAGUCUUUAAACCAAUAGAUUGCAUCGGUUUAAAAGGCAAGACCGUCAAAUUGCGGGAAAGGGGUCAACAGCCGUUCAGUACCAAGUCUCAGGGGAAACUUUGAGAUGGCCUUGCAAAGGGUAUGGUAAUAAGCUGACGGACAUGGUCCUAACCACGCAGCCAAGUCCUAAGUCAACAGAUCUUCUGUUGAUAUGGAUGCAGUUCACAGACUAAAUGUCGGUCGGGGAAGAUGUAUUCUUCUCAUAAGAUAUAGUCGGACCUCUCCUUAAUGGGAGCUAGCGGAUGAAGUGAUGCAACACUGGAGCCGCUGGGAACUAAUUUGUAUGCGAAAGUAUAUUGAUUAGUUUUGGAGUACUCGUGGUCG
How it was run: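 The eight P1ex-region nucleotides of an intron in the knt kanamycin-resistance gene on pET-22b(+) were all randomised and the library put into E. coli BL21(DE3). Six replicate transformations were grown overnight at 37°C or 30°C on LB agar with or without 25 μg/mL kanamycin, together with 100 μg/mL carbenicillin, 50 μM IPTG and 0.2% rhamnose. Colonies were pooled and amplicon-sequenced on an Illumina HiSeq 2500. Fitness from DiMSum is the error-weighted combination of wild-type-normalised replicate fold changes, kanamycin over none.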

| Sequence | self-splicing fitness (ln) (30 °C) | self-splicing fitness (ln) (37 °C) |
| --- | --- | --- |
| GCGCAGCAAUAUUACGCUGA | -1.16 ± 0.12 | -0.667 ± 0.1 |
| GCGCAGCAAUAUUACGGAAU | -1.12 ± 0.13 | -0.337 ± 0.15 |
| GCGCAGCAAUAUUACGGACU | -0.744 ± 0.12 | -0.35 ± 0.12 |
| GCGCAGCAAUAUUACGGAGA | -4.36 ± 0.42 | -1.69 ± 0.19 |
| GCGCAGCAAUAUUACGGCUG | -3.01 ± 0.3 | -1.7 ± 0.29 |
| GCGCAGCAAUAUUACGGGCG | -3.71 ± 0.47 | -3.03 ± 0.4 |
| GCGCAGCAAUAUUACGGUGA | -0.545 ± 0.066 | -0.107 ± 0.086 |
| GCGCAGCAAUAUUACGUAAU | -0.192 ± 0.061 | 0.31 ± 0.07 |
| GCGCAGCAAUAUUACGUACC | -1.63 ± 0.11 | -0.655 ± 0.13 |
| GCGCAGCAAUAUUACGUACG | -3.47 ± 0.2 | -1.09 ± 0.16 |
| GCGCAGCAAUAUUACGUAUA | -1.31 ± 0.06 | -1.05 ± 0.081 |
| GCGCAGCAAUAUUACGUCGU | -3.02 ± 0.12 | -2.75 ± 0.18 |
| GCGCAGCAAUAUUACGUCUU | -0.65 ± 0.049 | 0.336 ± 0.064 |
| GCGCAGCAAUAUUACGUGAU | -0.659 ± 0.063 | 0.488 ± 0.083 |
| GCGCAGCAAUAUUACGUGGU | -2.14 ± 0.081 | -1.02 ± 0.086 |
| GCGCAGCAAUAUUACGUUUU | -0.735 ± 0.049 | -0.277 ± 0.063 |
| GCGGAGCAAUAUUACGAACG | -3.06 ± 0.29 | -2.41 ± 0.23 |
| GCGGAGCAAUAUUACGACGU | -4.57 ± 0.46 | -2.5 ± 0.3 |
| GCGGAGCAAUAUUACGACUC | -2.06 ± 0.25 | -0.372 ± 0.34 |
| GCGGAGCAAUAUUACGAGGA | -2.26 ± 0.47 | -2.66 ± 0.37 |
| GCGGAGCAAUAUUACGCCAA | -2.32 ± 0.44 |  |
| GCGGAGCAAUAUUACGCGGC | -3.04 ± 0.48 |  |
| GCGGAGCAAUAUUACGGAUG | -3.28 ± 0.17 | -1.67 ± 0.22 |
| GCGGAGCAAUAUUACGGCGA | -1.5 ± 0.23 | -1.29 ± 0.28 |
| GCGGAGCAAUAUUACGGGAU | 0.0919 ± 0.27 |  |
| GCGGAGCAAUAUUACGGGGU | -1.55 ± 0.23 |  |
| GCGGAGCAAUAUUACGUAGC | -1.91 ± 0.28 | -2.38 ± 0.41 |

| Sequence | self-splicing fitness (ln) (30 °C) | self-splicing fitness (ln) (37 °C) |
| --- | --- | --- |
| GCGGAGCAAUAUUACGUCUC |  | -2.54 ± 0.38 |
| GCGGAGCAAUAUUACGUGGU | -3.54 ± 0.26 | -3.01 ± 0.4 |
| GCGGAGCAAUAUUACGUGUC | -2.84 ± 0.3 | -1.06 ± 0.43 |
| GCGUAGCAAUAUUACGAAAU | -2.16 ± 0.29 | -0.358 ± 0.24 |
| GCGUAGCAAUAUUACGAAGU | -2.22 ± 0.15 | -1.11 ± 0.16 |
| GCGUAGCAAUAUUACGACGC | -3.7 ± 0.39 |  |
| GCGUAGCAAUAUUACGCAUC | -3.37 ± 0.5 | -1 ± 0.4 |
| GCGUAGCAAUAUUACGCCGA |  | -2.28 ± 0.47 |
| GCGUAGCAAUAUUACGCUCC | -1.88 ± 0.2 | -0.401 ± 0.39 |
| GCGUAGCAAUAUUACGGACA | -1.31 ± 0.17 | -0.534 ± 0.13 |
| GCGUAGCAAUAUUACGGCCA |  | 0.769 ± 0.3 |
| GCGUAGCAAUAUUACGGGAA | -1.38 ± 0.27 | -1.44 ± 0.34 |
| GCGUAGCAAUAUUACGGGCA | -0.858 ± 0.2 | -0.854 ± 0.17 |
| GCGUAGCAAUAUUACGGUAU | -2.03 ± 0.077 | -0.828 ± 0.1 |
| GCGUAGCAAUAUUACGUACA | -1.1 ± 0.16 | -1.23 ± 0.14 |
| GCGUAGCAAUAUUACGUAGU | -2.27 ± 0.21 | -0.677 ± 0.14 |
| GCGUAGCAAUAUUACGUCAU | -3.22 ± 0.26 | -2.25 ± 0.3 |
| GCGUAGCAAUAUUACGUCGG | -2.69 ± 0.21 | -3.18 ± 0.24 |
| GCGUAGCAAUAUUACGUGAC | -2.29 ± 0.29 | -1.15 ± 0.28 |
| GCGUAGCAAUAUUACGUGCA | -1.53 ± 0.12 | -1.02 ± 0.13 |
| GCGUAGCAAUAUUACGUGCU | -2.05 ± 0.16 | -2.44 ± 0.27 |
| GCGUAGCAAUAUUACGUGGA | -3.68 ± 0.48 | -2.23 ± 0.38 |
| GCGUAGCAAUAUUACGUGUA | -3.63 ± 0.21 | -2.43 ± 0.12 |
| GCGUAGCAAUAUUACGUUCC |  | -2.36 ± 0.49 |
| GCGUAGCAAUAUUACGUUGA | -3.16 ± 0.33 | -1.94 ± 0.21 |
| GCGUAGCAAUAUUACGUUUG | -3.14 ± 0.21 | -1.37 ± 0.15 |
| GCUAAGCAAUAUUACGACAG | -2.67 ± 0.17 | -2.51 ± 0.32 |

| Sequence | self-splicing fitness (ln) (30 °C) | self-splicing fitness (ln) (37 °C) |
| --- | --- | --- |
| GCUAAGCAAUAUUACGAUGC | -3.28 ± 0.19 | -2.18 ± 0.18 |
| GCUAAGCAAUAUUACGAUUC | -0.0116 ± 0.081 | -0.128 ± 0.092 |
| GCUAAGCAAUAUUACGCACG | -1.84 ± 0.14 | -0.0584 ± 0.14 |
| GCUAAGCAAUAUUACGCAUU | -0.91 ± 0.065 | -0.163 ± 0.084 |
| GCUAAGCAAUAUUACGCCAA | -2.35 ± 0.33 | -1.74 ± 0.41 |
| GCUAAGCAAUAUUACGCCAC | -1.43 ± 0.35 | -2 ± 0.38 |
| GCUAAGCAAUAUUACGCCCU | -0.606 ± 0.19 | -0.768 ± 0.15 |
| GCUAAGCAAUAUUACGCCUU | -1.43 ± 0.11 | -0.0502 ± 0.14 |
| GCUAAGCAAUAUUACGCGCU | -2.47 ± 0.16 | -1.57 ± 0.23 |
| GCUAAGCAAUAUUACGCGGC | -0.424 ± 0.19 | -2.64 ± 0.5 |
| GCUAAGCAAUAUUACGCUGA | -1.48 ± 0.18 | -1.02 ± 0.2 |
| GCUAAGCAAUAUUACGCUUG | -3.24 ± 0.17 | -1.71 ± 0.18 |
| GCUAAGCAAUAUUACGGUCG | -2.27 ± 0.11 | -1.34 ± 0.14 |
| GCUAAGCAAUAUUACGGUGU | -2.48 ± 0.087 | -1.6 ± 0.1 |
| GCUAAGCAAUAUUACGUCCA | -1.94 ± 0.32 | -0.684 ± 0.23 |
| GCUAAGCAAUAUUACGUCCG | -1.53 ± 0.13 | -0.712 ± 0.15 |
| GCUAAGCAAUAUUACGUCGC | -2.46 ± 0.19 | -2.55 ± 0.29 |
| GCUAAGCAAUAUUACGUCUG | -1.84 ± 0.085 | -0.987 ± 0.096 |
| GCUAAGCAAUAUUACGUUAA | -2.72 ± 0.16 | -1.74 ± 0.18 |
| GCUAAGCAAUAUUACGUUCC | -1.14 ± 0.087 | -0.467 ± 0.14 |
| GCUCAGCAAUAUUACGACUG | -2.66 ± 0.35 | 0.178 ± 0.19 |
| GCUCAGCAAUAUUACGAGCC | -3.98 ± 0.31 | -3.64 ± 0.39 |
| GCUCAGCAAUAUUACGAGGA | -0.479 ± 0.12 | -0.741 ± 0.12 |
| GCUCAGCAAUAUUACGAUUG | -2.83 ± 0.12 | -1.11 ± 0.12 |
| GCUCAGCAAUAUUACGCAAU | -1.02 ± 0.078 | 0.487 ± 0.11 |
